Measurements as given in patent US20260209359A1 (NEXTERA, published 2026).

Columns and labels:
[1] = target: T1, HLA-A*02:01/MAGE-A4^230-239 displayed on cells (MAGE-A4^230-239 pulsed T2 cells; NCI-H1703, A375, THP1, … (human, UniProt P04439 25-365 at identity 0.94); P61769 21-119); assay: cell-based or functional assay
[2] = target: T2, HLA-A*02:01/MAGE-A4^230-239, soluble recombinant biotinylated pHLA (human, UniProt P04439 25-299 at identity 0.94); P61769 21-119, biotinylated); assay: ELISA, soluble biotinylated pHLA on neutravidin, scDb, protL-HRP
T2 construct: Empty biotinylated HLA-A2 monomers (Tetramer Shop) loaded with synthetic peptide; also called MAGE-A4 pMHC; MAGE-A4-pHLA
Procedure: ELISA plates were coated with 5 μg/mL NeutrAvidin in PBS and incubated 16 h/4° C. (step (a)) and blocked with 5% skim milk powder in PBST for 1 h/room temperature (RT) (step (c)). […] Bound phage particles were detected with an anti-Fd antibody (anti-M13-HRP (Amersham Biosciences)), whereas bound IgG1 and scDb was detected with HRP conjugated protein L (Genscript) (step (i)). […] Plates were developed with TMB solution and read at 450 nm using a microplate reader (step (k)). Between each layer, the plates were washed 3× with PBST (steps (b), (d), (f), (h), and (j)).

[3] = target: T1, HLA-A*02:01/MAGE-A4^230-239 displayed …; assay: cell-based or functional assay; remark: listed apart in the source

Binder | IFNγ EC50 vs. target positive cells (pM) [1] | EC50 [2] | EC50 vs. NCI-H1703 (pM), T-cell specific killing [3]
AM1 scDb (bispecific antibody, VLA-VHB-VLB-VHA, anti-CD3 UCHT1) DIRVTQSPSSLSASVGDRVTITCRADVHIYWYLNWYQQKPGKAPKLLIYAASSLQSGVPSRFSGSGSGTDFTLTISSLQPEDFATYYCQQSYSTPYTFGQGTKLEIKGGGGSEVQLQQSGPELVKPGASMKISCKASGYSFTGYTMNWVKQSHGKNLEWMGLINPYKGVSTYNQKFKDKATLTVDKSSSTAYMELLSLTSEDSAVYYCARSGYYGDSDWYFDVWGAGTTVTVSSGGGGSGGGGSGGGGSDIQMTQTTSSLSASLGDRVTISCRASQDIRNYLNWYQQKPDGTVKLLIYYTSRLHSGVPSKFSGSGSGTDYSLTISNLEQEDIATYFCQQGNTLPWTFAGGTKLEIKGGGGSQVQLVQSGAEVKKPGASVKVSCKVSGYTLTELSMHWVRQAPGKGLEWMGGFDPEDGETIYAQKFQGRVTMTEDTSTDTAYMELSSLRSEDTAVYYCATDQGSSWGFYWGQGTLVTVSS | 11.8 pM | 0.36 nM | 6.4 pM
AMC12 scDb (bispecific antibody, as m68) DIRVTQSPSSLSASVGDRVTITCRASQNIMWYLNWYQQKPGKAPKLLIYAASSLQSGVPSRFSGSGSGTDFTLTISSLQPEDFATYYCQQAYRIPYTFGQGTKLEIKGGGGSEVQLQQSGPELVKPGASMKISCKASGYSFTGYTMNWVKQSHGKNLEWMGLINPYKGVSTYNQKFKDKATLTVDKSSSTAYMELLSLTSEDSAVYYCARSGYYGDSDWYFDVWGAGTTVTVSSGGGGSGGGGSGGGGSDIQMTQTTSSLSASLGDRVTISCRASQDIRNYLNWYQQKPDGTVKLLIYYTSRLHSGVPSKFSGSGSGTDYSLTISNLEQEDIATYFCQQGNTLPWTFAGGTKLEIKGGGGSQVQLVQSGAEVKKPGASVKVSCKVSGPKLYEVSMHWVRQAPGKGLEWMGGFDPEDGETIYAQKFQGRVTMTEDTSTDTAYMELSSLRSEDTAVYYCATDQGASWGFYWGQGTLVTVSS | 6.9 pM | 0.25 nM | 
AMC7 scDb (bispecific antibody, as m68) DIRVTQSPSSLSASVGDRVTITCRASQNIMWYLNWYQQKPGKAPKLLIYAASSLQSGVPSRFSGSGSGTDFTLTISSLQPEDFATYYCQQSYSTPYTFGQGTKLEIKGGGGSEVQLQQSGPELVKPGASMKISCKASGYSFTGYTMNWVKQSHGKNLEWMGLINPYKGVSTYNQKFKDKATLTVDKSSSTAYMELLSLTSEDSAVYYCARSGYYGDSDWYFDVWGAGTTVTVSSGGGGSGGGGSGGGGSDIQMTQTTSSLSASLGDRVTISCRASQDIRNYLNWYQQKPDGTVKLLIYYTSRLHSGVPSKFSGSGSGTDYSLTISNLEQEDIATYFCQQGNTLPWTFAGGTKLEIKGGGGSQVQLVQSGAEVKKPGASVKVSCKVSGPKLYEVSMHWVRQAPGKGLEWMGGFDPEDGETIYAQKFQGRVTMTEDTSTDTAYMELSSLRSEDTAVYYCATDQGSSWGFYWGQGTLVTVSS | 8.5 pM | 0.41 nM | 
AMC5 scDb (bispecific antibody, as m68) DIRVTQSPSSLSASVGDRVTITCRADIDIRWYLNWYQQKPGKAPKLLIYAASSLQSGVPSRFSGSGSGTDFTLTISSLQPEDFATYYCQQSYSTPYTFGQGTKLEIKGGGGSEVQLQQSGPELVKPGASMKISCKASGYSFTGYTMNWVKQSHGKNLEWMGLINPYKGVSTYNQKFKDKATLTVDKSSSTAYMELLSLTSEDSAVYYCARSGYYGDSDWYFDVWGAGTTVTVSSGGGGSGGGGSGGGGSDIQMTQTTSSLSASLGDRVTISCRASQDIRNYLNWYQQKPDGTVKLLIYYTSRLHSGVPSKFSGSGSGTDYSLTISNLEQEDIATYFCQQGNTLPWTFAGGTKLEIKGGGGSQVQLVQSGAEVKKPGASVKVSCKVSGPKLYEVSMHWVRQAPGKGLEWMGGFDPEDGETIYAQKFQGRVTMTEDTSTDTAYMELSSLRSEDTAVYYCATDQGASWGFYWGQGTLVTVSS | 8 pM | 0.32 nM | 
AMC3 scDb (bispecific antibody, as m68) DIRVTQSPSSLSASVGDRVTITCRASQNIMWYLNWYQQKPGKAPKLLIYAASSLQSGVPSRFSGSGSGTDFTLTISSLQPEDFATYYCQQSYSTPYTFGQGTKLEIKGGGGSEVQLQQSGPELVKPGASMKISCKASGYSFTGYTMNWVKQSHGKNLEWMGLINPYKGVSTYNQKFKDKATLTVDKSSSTAYMELLSLTSEDSAVYYCARSGYYGDSDWYFDVWGAGTTVTVSSGGGGSGGGGSGGGGSDIQMTQTTSSLSASLGDRVTISCRASQDIRNYLNWYQQKPDGTVKLLIYYTSRLHSGVPSKFSGSGSGTDYSLTISNLEQEDIATYFCQQGNTLPWTFAGGTKLEIKGGGGSQVQLVQSGAEVKKPGASVKVSCKVSGPKLYEVSMHWVRQAPGKGLEWMGGFDPEDGETIYAQKFQGRVTMTEDTSTDTAYMELSSLRSEDTAVYYCATDQGASWGFYWGQGTLVTVSS | 7.3 pM | 0.35 nM | 
AMC10 scDb (bispecific antibody, as m68) DIQLTQSPSSLSASVGDRVTITCRASQNIMWYLNWYQQKPGKAPKLLIYAASGLQSGVPSRFSGSGSGTDFTLTISSLQPEDFATYYCQQSYSTPFTFGPGTKVDIKGGGGSEVQLQQSGPELVKPGASMKISCKASGYSFTGYTMNWVKQSHGKNLEWMGLINPYKGVSTYNQKFKDKATLTVDKSSSTAYMELLSLTSEDSAVYYCARSGYYGDSDWYFDVWGAGTTVTVSSGGGGSGGGGSGGGGSDIQMTQTTSSLSASLGDRVTISCRASQDIRNYLNWYQQKPDGTVKLLIYYTSRLHSGVPSKFSGSGSGTDYSLTISNLEQEDIATYFCQQGNTLPWTFAGGTKLEIKGGGGSQVQLVQSGAEVKKPGASVKVSCKVSGYTLTELSMHWVRQAPGKGLEWMGGFDPEDGETIYAQKFQGRVTMTEDTSTDTAYMELSSLRSEDTAVYYCATDQGSSWGFYWGQGTLVTVSS | 1.7 pM | 0.46 nM | 
AMC14 scDb (bispecific antibody, as m68) DIRVTQSPSSLSASVGDRVTITCRASQNIMWYLNWYQQKPGKAPKLLIYAASSLQSGVPSRFSGSGSGTDFTLTISSLQPEDFATYYCQQAYRIPYTFGQGTKLEIKGGGGSEVQLQQSGPELVKPGASMKISCKASGYSFTGYTMNWVKQSHGKNLEWMGLINPYKGVSTYNQKFKDKATLTVDKSSSTAYMELLSLTSEDSAVYYCARSGYYGDSDWYFDVWGAGTTVTVSSGGGGSGGGGSGGGGSDIQMTQTTSSLSASLGDRVTISCRASQDIRNYLNWYQQKPDGTVKLLIYYTSRLHSGVPSKFSGSGSGTDYSLTISNLEQEDIATYFCQQGNTLPWTFAGGTKLEIKGGGGSQVQLVQSGAEVKKPGASVKVSCKVSGPKLYEVSMHWVRQAPGKGLEWMGGFDPEDGETIYAQKFQGRVTMTEDTSTDTAYMELSSLRSEDTAVYYCATDQGSSWGFYWGQGTLVTVSS | 8.2 pM | 0.47 nM | 
AMC4 scDb (bispecific antibody, as m68) DIRVTQSPSSLSASVGDRVTITCRADHHIFWYLNWYQQKPGKAPKLLIYAASSLQSGVPSRFSGSGSGTDFTLTISSLQPEDFATYYCQQSYSTPYTFGQGTKLEIKGGGGSEVQLQQSGPELVKPGASMKISCKASGYSFTGYTMNWVKQSHGKNLEWMGLINPYKGVSTYNQKFKDKATLTVDKSSSTAYMELLSLTSEDSAVYYCARSGYYGDSDWYFDVWGAGTTVTVSSGGGGSGGGGSGGGGSDIQMTQTTSSLSASLGDRVTISCRASQDIRNYLNWYQQKPDGTVKLLIYYTSRLHSGVPSKFSGSGSGTDYSLTISNLEQEDIATYFCQQGNTLPWTFAGGTKLEIKGGGGSQVQLVQSGAEVKKPGASVKVSCKVSGPKLYEVSMHWVRQAPGKGLEWMGGFDPEDGETIYAQKFQGRVTMTEDTSTDTAYMELSSLRSEDTAVYYCATDQGASWGFYWGQGTLVTVSS | 9.2 pM | 0.36 nM | 
AMC1 scDb (bispecific antibody, as m68) DIRLTQSPSSLSASVGDRVTMTCRASQTVATYVNWYQQKPGRAPKLLMYVTSIRQSEVPSRFSGDGFGTDFTLTINPLQPDDFATYYCQQAYSTPVTFGQGTKLEIKGGGGSEVQLQQSGPELVKPGASMKISCKASGYSFTGYTMNWVKQSHGKNLEWMGLINPYKGVSTYNQKFKDKATLTVDKSSSTAYMELLSLTSEDSAVYYCARSGYYGDSDWYFDVWGAGTTVTVSSGGGGSGGGGSGGGGSDIQMTQTTSSLSASLGDRVTISCRASQDIRNYLNWYQQKPDGTVKLLIYYTSRLHSGVPSKFSGSGSGTDYSLTISNLEQEDIATYFCQQGNTLPWTFAGGTKLEIKGGGGSQVQLVQSGAEVKKPGASVKVSCKVSGPKLYEVSMHWVRQAPGKGLEWMGGFDPEDGETIYAQKFQGRVTMTEDTSTDTAYMELSSLRSEDTAVYYCATDQGASWGFYWGQGTLVTVSS | 3.6 pM | 0.45 nM | 
AMC6 scDb (bispecific antibody, as m68) DIRLTQSPSSLSASVGDRVTMTCRASQTVATYVNWYQQKPGRAPKLLMYVTSIRQSEVPSRFSGDGFGTDFTLTINPLQPDDFATYYCQQAYSTPVTFGQGTKLEIKGGGGSEVQLQQSGPELVKPGASMKISCKASGYSFTGYTMNWVKQSHGKNLEWMGLINPYKGVSTYNQKFKDKATLTVDKSSSTAYMELLSLTSEDSAVYYCARSGYYGDSDWYFDVWGAGTTVTVSSGGGGSGGGGSGGGGSDIQMTQTTSSLSASLGDRVTISCRASQDIRNYLNWYQQKPDGTVKLLIYYTSRLHSGVPSKFSGSGSGTDYSLTISNLEQEDIATYFCQQGNTLPWTFAGGTKLEIKGGGGSQVQLVQSGAEVKKPGASVKVSCKVSGPKLYEVSMHWVRQAPGKGLEWMGGFDPEDGETIYAQKFQGRVTMTEDTSTDTAYMELSSLRSEDTAVYYCATDQGSSWGFYWGQGTLVTVSS | 8.6 pM | 0.61 nM | 
